In US20230192803A1 (published 2023):

What was measured:
Ad293 STEAP3-2 = assay: flow cytometry cell binding; Ad293 STEAP3-2 chimera cells; affinity calculated from EC50
Ad293 Murine STEAP3-2 = assay: flow cytometry cell binding; Ad293 murine STEAP3-2 chimera cells; affinity calculated from EC50

EC50 (Ad293 STEAP3-2): 20.2 nM | EC50 (Ad293 Murine STEAP3-2): 28.2 nM
B1: 40A3 scFv-Fc (Fc fusion)
scFv: EIVMTQSPATLSVSPGERATLSCRASQSVNSNLAWYQQKPGQAPRLLIYGASTRATGIPARFSGSGSGTEFTLTISSLQSEDFAVYYCQQYNNWPFTFGPGTKVDIKGGGGSGGGGSGGGGSGGGGSQVQLQQSGPGLVKPSQTLSLTCAISGDSVSRNSAVWNWIRQSPSRGLEWLGRTYYRSKWYNDYAVSVKSRITINPDTSKNQFSLQVNSVTPEDTAVYYCARGLLQNNFYYYMDVWGKGTTVTVSS
